Test results published in patent US6991916B2, “Compounds for the treatment of sexual dysfunction” (Pfizer Inc., priority 2000, dated 2006).
Non-standard residues stand in square brackets, D forms with d. QSY‑7 = quencher dye attached to Cys via maleimide; Rhodamine green = fluorophore at the N-terminus; βAla = NCCC(=O)O

What was measured:
mouse SEP = target: T1, mouse SEP (Mus musculus, UniProt Q9JLI3); conditions: cited from earlier work
T1 sequence (Q9JLI3 1-765): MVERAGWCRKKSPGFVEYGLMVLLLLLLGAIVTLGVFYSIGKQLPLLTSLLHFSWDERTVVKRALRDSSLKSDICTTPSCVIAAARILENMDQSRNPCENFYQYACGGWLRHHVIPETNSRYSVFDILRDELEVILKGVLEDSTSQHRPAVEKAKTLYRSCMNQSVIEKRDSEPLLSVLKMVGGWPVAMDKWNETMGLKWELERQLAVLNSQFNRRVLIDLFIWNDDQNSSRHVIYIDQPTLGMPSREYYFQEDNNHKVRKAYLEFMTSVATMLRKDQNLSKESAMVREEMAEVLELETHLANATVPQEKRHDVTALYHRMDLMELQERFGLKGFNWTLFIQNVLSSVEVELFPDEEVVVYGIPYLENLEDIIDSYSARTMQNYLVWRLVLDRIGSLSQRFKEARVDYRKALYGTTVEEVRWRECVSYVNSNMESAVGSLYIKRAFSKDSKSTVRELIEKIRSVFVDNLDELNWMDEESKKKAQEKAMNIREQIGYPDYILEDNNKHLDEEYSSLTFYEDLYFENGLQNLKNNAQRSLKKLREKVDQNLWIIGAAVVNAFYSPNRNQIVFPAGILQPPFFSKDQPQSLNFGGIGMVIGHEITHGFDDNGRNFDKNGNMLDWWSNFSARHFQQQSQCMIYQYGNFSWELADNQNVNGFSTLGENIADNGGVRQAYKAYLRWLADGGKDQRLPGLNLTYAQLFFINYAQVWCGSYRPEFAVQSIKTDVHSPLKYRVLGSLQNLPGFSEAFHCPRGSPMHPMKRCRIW

human SEP = target: T2, human SEP (Homo sapiens, UniProt Q495T6); test: Sensitivity of human SEP to inhibitors; format: biochemical
T2 construct: with the full length cDNA cloned into the pCMV6-XL4 vector; made in house; host or cells: CHO cells, transient transfection; dialysed culture medium
T2 sequence (Q495T6 75-779 limits assumed): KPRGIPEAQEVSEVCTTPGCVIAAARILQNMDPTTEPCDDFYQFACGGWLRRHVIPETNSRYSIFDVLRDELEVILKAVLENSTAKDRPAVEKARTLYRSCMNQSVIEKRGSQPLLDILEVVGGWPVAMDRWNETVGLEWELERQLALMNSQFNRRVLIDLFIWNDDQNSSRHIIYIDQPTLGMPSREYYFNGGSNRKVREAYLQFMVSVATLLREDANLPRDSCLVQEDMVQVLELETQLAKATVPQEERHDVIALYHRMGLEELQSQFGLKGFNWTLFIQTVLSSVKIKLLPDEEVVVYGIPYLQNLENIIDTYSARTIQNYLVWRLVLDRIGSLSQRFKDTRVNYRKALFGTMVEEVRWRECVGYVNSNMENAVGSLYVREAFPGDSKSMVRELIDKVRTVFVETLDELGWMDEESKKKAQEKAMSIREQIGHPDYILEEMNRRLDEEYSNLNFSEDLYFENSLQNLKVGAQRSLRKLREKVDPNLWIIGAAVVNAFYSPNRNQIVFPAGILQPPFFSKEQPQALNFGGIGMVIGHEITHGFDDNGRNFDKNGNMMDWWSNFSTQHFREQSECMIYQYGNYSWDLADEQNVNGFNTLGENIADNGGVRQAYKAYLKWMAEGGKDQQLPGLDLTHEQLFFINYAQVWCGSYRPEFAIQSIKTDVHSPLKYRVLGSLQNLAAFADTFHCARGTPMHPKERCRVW
Experimental: The enzymatic (proteolytic) activity of human SEP protein can be measured in an assay involving, for example, mixing a sample of the human SEP enzyme with a substrate peptide in a buffer solution (for example 50 mM HEPES; pH 7.4), incubating the mixture for a period of time (such as 1-3 hours) enough for human SEP to act to cleave a measurable portion of the peptide substrate to a product at a temperature suitable for SEP activity (typically 30-37° C.).
The effect of candidate human SEP inhibitor compounds or control test compounds such as phosphoramidon and thiorphan that may alter the activity of human SEP can be measured in this type of assay by including them in the initial mixture at a range of suitable test concentrations, typically 0.1 nM to 50 µM.
To determine the IC50 of SEP inhibitors (SEPi; for example, phosphoramidon), multiple SEP assays are performed as described above with a range of test concentrations of inhibitor included in the 50 μl of DMSO solution (made by appropriate dilution of a 10 mM 100% DMSO stock of inhibitor with 4% DMSO/50 mM HEPES pH7.4.). Using a suitable standard graph fitting computer program, a sigmoidal dose response curve is fitted to a plot of log inhibitor concentration versus MaxV (or % inhibition or % activity). The IC50 is calculated as the inhibitor concentration causing 50% maximal inhibition. […]

NEP enzyme = target: T3, NEP enzyme (Homo sapiens, UniProt P08473); test: NEP FRET assay (384 well, substrate CP4); format: biochemical; conditions: steady state kinetics of NEP with the peptide substrate
T3 construct: made in house; host or cells: Pichia pastoris
T3 sequence (P08473 whole entry): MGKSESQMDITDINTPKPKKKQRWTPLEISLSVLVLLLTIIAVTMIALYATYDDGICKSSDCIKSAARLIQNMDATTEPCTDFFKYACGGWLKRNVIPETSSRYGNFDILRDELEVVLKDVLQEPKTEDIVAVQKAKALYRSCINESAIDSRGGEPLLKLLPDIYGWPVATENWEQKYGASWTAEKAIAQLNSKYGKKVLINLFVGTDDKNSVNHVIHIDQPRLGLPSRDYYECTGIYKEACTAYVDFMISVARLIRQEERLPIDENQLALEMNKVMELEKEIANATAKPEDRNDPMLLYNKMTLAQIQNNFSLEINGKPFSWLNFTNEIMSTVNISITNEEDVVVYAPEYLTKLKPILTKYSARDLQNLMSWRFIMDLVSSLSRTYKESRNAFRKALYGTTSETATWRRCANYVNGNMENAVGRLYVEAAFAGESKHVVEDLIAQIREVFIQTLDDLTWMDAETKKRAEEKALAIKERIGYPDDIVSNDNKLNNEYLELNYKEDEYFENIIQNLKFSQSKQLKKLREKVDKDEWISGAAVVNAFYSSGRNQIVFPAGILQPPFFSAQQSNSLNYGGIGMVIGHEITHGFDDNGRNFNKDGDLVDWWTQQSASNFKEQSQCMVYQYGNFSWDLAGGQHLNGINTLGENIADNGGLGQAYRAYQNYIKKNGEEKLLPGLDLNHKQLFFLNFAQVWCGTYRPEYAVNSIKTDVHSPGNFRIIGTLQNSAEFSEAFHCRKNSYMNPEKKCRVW

[1] = target: T4, Rhodamine green-Gly-Gly-dPhe-Leu-Arg-Arg-Val-Cys(QSY-7)-betaAla-NH2
T4 chain: GGFLRRVCA

## O=C(O)CNC(=O)C(CS)Cc1ccccc1 (stereo not drawn) [thiorphan]
Mouse SEP
  sensitivity of enzyme to inhibitor: sensitive
Human SEP
  sensitivity of enzyme to inhibitor: sensitive

## CC(C)C[C@H](NP(=O)(O)O[C@@H]1O[C@@H](C)[C@H](O)[C@@H](O)[C@H]1O)C(=O)N[C@@H](Cc1c[nH]c2ccccc12)C(=O)O [phosphoramidon]
Mouse SEP
  sensitivity of enzyme to inhibitor: sensitive
Human SEP
  sensitivity of enzyme to inhibitor: sensitive

## Rhodamine green-Gly-Gly-dPhe-Leu-Arg-Arg-Val-Cys(QSY™-7)-βAla-NH2 ({Rhodamine green}-GG[dF]LRRVC(QSY‑7)[βAla]-NH2) [CP4]
NEP enzyme
  Kcat: 0.083 s⁻¹
NEP enzyme; recombinant human enzyme, 50 mM Hepes pH 8, 25° C.
  Km: 8 µM

B1: Recombinant human NEP (neutral endopeptidase) enzyme (protein)
chain: YDDGICKSSDCIKSAARLIQNMDATTEPCTDFFKYACGGWLKRNVIPETSSRYGNFDILRDELEVVLKDVLQEPKTEDIVAVQKAKALYRSCINESAIDSRGGEPLLKLLPDIYGWPVATENWEQKYGASWTAEKAIAQLNSKYGKKVLINLFVGTDDKNSVNHVIHIDQPRLGLPSRDYYECTGIYKEACTAYVDFMISVARLIRQEERLPIDENQLALEMNKVMELEKEIANATAKPEDRNDPMLLYNKMTLAQIQNNFSLEINGKPFSWLNFTNEIMSTVNISITNEEDVVVYAPEYLTKLKPILTKYSARDLQNLMSWRFIMDLVSSLSRTYKESRNAFRKALYGTTSETATWRRCANYVNGNMENAVGRLYVEAAFAGESKHVVEDLIAQIREVFIQTLDDLTWMDAETKKRAEEKALAIKERIGYPDDIVSNDNKLNNEYLELNYKEDEYFENIIQNLKFSQSKQLKKLREKVDKDEWISGAAVVNAFYSSGRNQIVFPAGILQPPFFSAQQSNSLNYGGIGMVIGHEITHGFDDNGRNFNKDGDLVDWWTQQSASNFKEQSQCMVYQYGNFSWDLAGGQHLNGINTLGENIADNGGLGQAYRAYQNYIKKNGEEKLLPGLDLNHKQLFFLNFAQVWCGTYRPEYAVNSIKTDVHSPGNFRIIGTLQNSAEFSEAFHCRKNSYMNPEKKCRVW
[1]
  Kcat: 0.083 s⁻¹
  Kcat/Km: 10,500 M^-1 S^-1
  Km: 8 µM
